Results reported in patent publication US12578329B2, “Reagent kit containing polypeptide for use in detection of intermolecular interactions” (SHIMADZU CORPORATION, priority 2021, dated 2026).
Entries after “also recorded” stand apart in the source; their conditions may differ.

B1: picALuc30: SEQ ID NO: 51; amino acids 54 to 175 of ALuc30 wt, without the N terminus and C terminus; 13 kDa luciferase (protein)
chain: KLPGKKLPLEVLKELEANAQKAGCTRGCLICLSHIKCTAKMKKWLPGRCESWEGDKETGQGGIGEAIVDIPEIPGFKELAPMEQFIAQVDLCADCTTGCLKGLANVKCSALLKKWLPSRCAG
modifications: picALuc30
notes: amino acids 54 to 175 of ALuc30 wt, without the N terminus and C terminus; 13 kDa luciferase
B2: NanoLuc®: known luciferase, about 19 kDa; SEQ ID NO: 73 (protein)
chain: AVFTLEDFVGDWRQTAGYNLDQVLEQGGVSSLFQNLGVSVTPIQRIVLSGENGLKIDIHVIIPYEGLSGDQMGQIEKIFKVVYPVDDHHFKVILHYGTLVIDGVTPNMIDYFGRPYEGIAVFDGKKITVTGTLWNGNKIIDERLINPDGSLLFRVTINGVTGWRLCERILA
modifications: oplophorus gracilirostris
B3: TurboLuc™: known luciferase, about 16 kDa; SEQ ID NO: 74 (protein, listed as Metrisia longa)
chain: MEAEAERGKLPGKKLPLEVLIELEANARKAGCTRGCLICLSKIKCTAKMKKYIPGRCADYGGDKKTGQAGIVGAIVDIPEISGFKEMEPMEQFIAQVDRCADCTTGCLKGLANVKCSDLLKKWLPGRCATFADKIQSEVDNIKGLAGD

Key:
[1] = Emission value of secretion-expressed luciferase in COS-7 culture medium, coelenterazine substrate; type: biochemical; conditions: for emission values (rank order): Experiment 5
Method: (§1) • (1) COS-7 cells derived from the kidney of African green monkey were inoculated in a 24-well dish, and on the next day, subconfluency was attained. • (2) 25 μL of Opti-MEM (Thermo Fisher Scientific™), 400 ng (2 μL) of the plasmid, and 1 μL of P3000 (Invitrogen™, Waltham, MA) were mixed. • (3) 25 μL of Opti-MEM and 1 μL of lipofectoamine 3000 (Invitrogen™) were mixed. • (4) (2) and (3) were mixed together, followed by incubation at room temperature for 5 minutes. • (5) The mixture was added to the medium of (1). • (6) 500 μL of Dulbecco's modified Eagle's medium was added, followed by culturing the cells at 37° C. for 1 day and then collecting the medium. The medium contained secretion-expressed luciferase. • (7) To 100 μL of the medium, coelenterazine was added as a substrate at a final concentration of 5 μM, followed by measuring the emission value by using Enspire multi-mode plate reader (PerkinElmer™, Waltham, MA).
By the same manner as in Experiment 2, the emission value was measured.
The emission value was measured in the same manner as in Experiment 2 except that the final concentration of coelenterazine was changed to 0.5 μM. […] The emission value was measured in the same manner as in Experiment 2 except that the final concentration of coelenterazine was changed to 5 μM.

[2] = Emission value of secretion-expressed luciferase in COS-7 culture medium, coelenterazine h substrate; type: biochemical; conditions: Experiment 5
Method: as §1
The emission value was measured in the same manner as in Experiment 2 except that coelenterazine h was used as a substrate in a final concentration of 5 μM. […] The emission value was measured in the same manner as in Experiment 2 except that coelenterazine h was used as a substrate in a final concentration of 25 μM.

[3] = Emission value of secretion-expressed luciferase in COS-7 culture medium, furimazine substrate; type: biochemical; conditions: Experiment 5; furimazine in the concentration recommended by the manufacturer
Method: as §1
The emission value was measured in the same manner as in Experiment 2 except that furimazine, which was available from Promega™ as a NanoLuc® substrate, was used as a substrate in the concentration recommended by the manufacturer.

[4] = Stability of protein terminus: Western blot detection of Flag-tag and His-tag in culture supernatant; conditions: secretion-expressed luciferase in COS-7 culture supernatant; Western blotting
From the text: In the same manner as in Experiment 2, the plasmid was transfected into COS-7 cells and culture supernatant was collected. Flag-tag added to the N terminus of each secretion-expressed luciferase and His-tag added to the C terminus thereof were detected by Western blotting (SDS-PAGE, Mini-PROTEAN TGX Gel StainFree 4-15% (Bio-Rad™, Hercules, CA)) (FIG. 17). The antibodies used were Anti 6×Histidine, Monoclonal Antibody (9C11), Peroxidase Conjugated (manufactured by FUJIFILM Wako Pure Chemical Corporation, 1:1000) and Monoclonal ANTI-FLAG (R) M2-Peroxidase (HRP) antibody produced in mouse, clone M2 (manufactured by Sigma-Aldrich™, St. Louis, MO, 1/1000), respectively, and detection was performed with Amesham Imager 680 (Cytiva™, Marlborough, MA).

[5] = Measurement of specific activity (enzyme concentrations adjusted by Western blot signal); type: biochemical
Method: The specific activities of NanoLuc®, ALuc30 wt, and picALuc30 were measured, with their enzyme concentrations adjusted based on the Western blot signal intensity obtained in Experiment 6.

[6] = Thermal stability of secretion-expressed picALuc30 (heat treatment, then emission value); type: physicochemical
Method: In the same manner as in Experiment 2, the plasmid was transfected into COS-7 cells and the medium was collected. The culture supernatant containing picALuc30 was incubated for 10 minutes at room temperature (25° C.), 40° C., 50° C., 60° C., 70° C., 80° C., or 90° C., and then the emission value was measured. […] (FIG. 22), indicating a sufficient level of practical utility.

[7] = Specific activity of picALuc30 expressed in Escherichia coli versus secretion-expressed by COS-7 cells; type: biochemical; conditions: concentrations adjusted by Western blotting
Method: • (1) A DNA sequence coding for picALuc30 was inserted into a pET32 vector to prepare a plasmid. Transformation was carried out into Escherichia coli SHuffle T7 express lysY (New England Biolab). • (2) Escherichia coli from (1) was inoculated into an LB plate (containing […] of ampicillin). • (3) Next day, one colony was taken out, and cultured with shaking overnight at 30° C. in a test tube containing 2 mL of LB medium (containing […] of ampicillin). • (4) 1 mL of (3) was added to 100 mL of LB medium (containing […] of ampicillin), followed by shaking culture at 30° C. in a 500-mL flask until the absorbance OD600 reached about 0.4. • (5) When the absorbance OD600 reached about 0.4, 40 μL of 1-M isopropyl-β-thiogalactopyranoside was added, followed by overnight culture at 16° C. • (6) The bacterial cells were collected, followed by purification of the protein using HisTALON Buffer Set and TALON Metal Affinity Resin (both from Takara Bio Inc.). From 100 mL of the medium, 1.7 mg of picALuc30 was obtained.

[8] = Thermal stability of picALuc30 purified from Escherichia coli; type: physicochemical; conditions: expressed in Escherichia coli
[9] = GLuc: when secretion expressed from cells; cited from earlier work

Row | Molecule | emission value ([1]; Experiment 2, coelenterazine 5 μM, medium of transfected COS-7 cells) | emission values (rank order) ([1]; coelenterazine 0.5 μM) | emission values (rank order) ([1]; coelenterazine 5 μM) | emission value compared with NanoLuc and TurboLuc ([1]; secretion-expressed, substrate coelenterazine or coelenterazine h in a high concentration (summary of Experiment 5)) | emission values (rank order) ([2]; coelenterazine h 5 μM) | emission values (rank order) ([2]; coelenterazine h 25 μM) | emission value [3] | stability of protein termini (Flag-tag and His-tag detection) [4] | maximum emission value ([5]; Experiment 7) | specific activity ([5]; coelenterazine or coelenterazine h as substrate) | activity remained ([6]; 10-minute incubation at 50° C.) [%] | activity remained ([6]; 10-minute incubation at 60° C.) [%] | activity remained ([6]; 10-minute incubation at 70° C.) [%] | specific activity, secretion expressed by COS-7 cells versus prepared in Escherichia coli [7] | activity after heat treatment ([8]; 10-minute incubation at 60° C.) | activity remained ([8]; 10-minute incubation at 70° C.) [%] | activity remained ([8]; 10-minute incubation at 80° C.) [%] | emission value (known) [9]
1 | B1 | the same as or higher than that of ALuc30 wt | NanoLuc®>>picALuc30>TurboLuc™>ALuc30 wt>GLuc | ALuc30 wt=picALuc30>NanoLuc®>TurboLuc™>GLuc | equal to or higher than NanoLuc® and TurboLuc™ | TurboLuc™=ALuc30 wt>>NanoLuc®>picALuc30>GLuc | picALuc30>>NanoLuc®=TurboLuc™=ALuc30 wt>>GLuc | low as compared to NanoLuc® and TurboLuc™ | both termini remaining | same maximum emission value as NanoLuc® | the same | ≥ 80 | ≥ 80 | ≥ 50 | approximately the same | lost little activity | ≥ 90 | ≥ 80 | 
2 | B2 |  | NanoLuc®>>picALuc30>TurboLuc™>ALuc30 wt>GLuc | ALuc30 wt=picALuc30>NanoLuc®>TurboLuc™>GLuc |  | TurboLuc™=ALuc30 wt>>NanoLuc®>picALuc30>GLuc | picALuc30>>NanoLuc®=TurboLuc™=ALuc30 wt>>GLuc | high emission values; also recorded: the same as when coelenterazine or coelenterazine h was used |  |  |  |  |  |  |  |  |  |  | very high
3 | B3 |  | NanoLuc®>>picALuc30>TurboLuc™>ALuc30 wt>GLuc | ALuc30 wt=picALuc30>NanoLuc®>TurboLuc™>GLuc |  | TurboLuc™=ALuc30 wt>>NanoLuc®>picALuc30>GLuc | picALuc30>>NanoLuc®=TurboLuc™=ALuc30 wt>>GLuc | high emission values | N terminus was lost |  |  |  |  |  |  |  |  |  | relatively high
